For orientation: Kd means the free concentration of one partner at which half of the binding sites on the other are occupied at equilibrium, for simple one-to-one binding.

Where only a bound is given, the exact number is not on record here.

In the Immune Epitope Database (IEDB) one finds Kd data, which are given here for 22 sequences.

Targets include HLA-A*11:01; HLA-A*68:01; HLA-A*31:01; HLA-A*03:01; HLA-A*33:01; HLA-A*68:02; HLA-A*02:03; HLA-A*02:06; HLA-A*02:02; HLA-A*02:01; HLA-A*23:01; HLA-A*29:02; HLA-A*24:02; HLA-A*30:02; HLA-B*40:01; HLA-B*40:02; HLA-B*44:03; HLA-B*45:01; HLA-B*44:02; HLA-B*18:01; HLA-B*53:01; HLA-B*54:01; HLA-B*35:01; HLA-B*51:01; HLA-A*01:01.
Holding throughout (assay): IEDB peptide-MHC binding, purified MHC/competitive/radioactivity; filed as Kd, often an IC50 or EC50 that approximates it; ≥ and ≤ were set here for values at or beyond the usual limits of such assays
Settings in all cases: source organism: Influenza A virus

As to ASCMGLIYNR, the Kd in the test with HLA-A*11:01 turned out to be 32 nM; with HLA-A*68:01 it was 391 nM; in the test with HLA-A*31:01, 7 nM; with HLA-A*03:01, 816 nM; with HLA-A*33:01, 445 nM.

As for CLPACVYGL, the Kd with HLA-A*68:02 came to 3770 nM; with HLA-A*02:03 it was 143 nM; with HLA-A*02:06, 95 nM; with HLA-A*02:02, 4 nM; in the test with HLA-A*02:01 it was 79 nM.

For the sequence FQGRGVFEL, the Kd in the test with HLA-A*68:02 is ≥ 10000 nM; with HLA-A*02:03 it was 307 nM; with HLA-A*02:06 it was 7 nM; with HLA-A*02:02 it was 7 nM; in the test with HLA-A*02:01, 143 nM.

Turning to FQVDCFLWHV, the Kd is 219 nM with HLA-A*68:02; 3 nM in the test with HLA-A*02:03; ≤ 1 nM with HLA-A*02:06; 4 nM with HLA-A*02:02; 4 nM with HLA-A*02:01.

In the case of FYIQMCTEL, the dissociation constant (Kd) with HLA-A*23:01 was 8 nM; with HLA-A*29:02, 1560 nM; in the test with HLA-A*24:02, 24 nM; in the test with HLA-A*30:02, ≥ 10000 nM.

Regarding FYRYGFVANF, the Kd in the test with HLA-A*23:01 was 13 nM; in the test with HLA-A*29:02, 812 nM; in the test with HLA-A*24:02 it was 17 nM; in the test with HLA-A*30:02, ≥ 10000 nM.

Consider GERQNATEI, for which the Kd was 199 nM with HLA-B*40:01; 53 nM in the test with HLA-B*40:02; ≥ 10000 nM in the test with HLA-B*44:03; 304 nM with HLA-B*45:01; ≥ 10000 nM with HLA-B*44:02; ≥ 10000 nM with HLA-B*18:01.

Take GTFEFTSFFY: the dissociation constant (Kd) was ≤ 1 nM with HLA-A*11:01; 100 nM with HLA-A*68:01; 242 nM with HLA-A*31:01; 16 nM with HLA-A*03:01; 5410 nM with HLA-A*33:01.

On to KFLPDLYDYK, for which the Kd with HLA-A*11:01 was 22 nM; in the test with HLA-A*68:01, 507 nM; in the test with HLA-A*31:01, 2410 nM; with HLA-A*03:01, 255 nM; with HLA-A*33:01, ≥ 10000 nM.

For KLVGINMSKK, the Kd in the test with HLA-A*11:01 is 315 nM; with HLA-A*68:01, 1610 nM; with HLA-A*31:01 it was 518 nM; with HLA-A*03:01, 14 nM; with HLA-A*33:01 it was ≥ 10000 nM.

As for KSCLPACVY, the dissociation constant Kd with HLA-A*29:02 is ≥ 10000 nM; in the test with HLA-A*30:02, 43 nM.

As for LPRRSGAAGA, the Kd is ≥ 10000 nM with HLA-B*53:01, 47 nM in the test with HLA-B*54:01, ≥ 10000 nM in the test with HLA-B*35:01 and ≥ 10000 nM with HLA-B*51:01.

As to NMLSTVLGV, the equilibrium dissociation constant (Kd) was found to be 1060 nM with HLA-A*68:02, 11 nM with HLA-A*02:03, 3 nM with HLA-A*02:06 and 5 nM with HLA-A*02:02.

As for QEIRTFSFQL, the Kd with HLA-B*40:01 was 135 nM; with HLA-B*40:02, 68 nM; with HLA-B*44:03, 431 nM; in the test with HLA-B*45:01 it was 380 nM; in the test with HLA-B*44:02, 102 nM; in the test with HLA-B*18:01, 515 nM.

As to RLFFKCIYRR, the dissociation constant (Kd) with HLA-A*11:01 came to 294 nM; in the test with HLA-A*68:01, 88 nM; in the test with HLA-A*31:01, 5 nM; with HLA-A*03:01 it was 135 nM; with HLA-A*33:01, 238 nM.

For the sequence SEQAAEAMEV, the dissociation constant (Kd) with HLA-B*40:01 was 2670 nM; in the test with HLA-B*40:02, 85 nM; with HLA-B*44:03, 7670 nM; with HLA-B*45:01, 35 nM; in the test with HLA-B*44:02, 2640 nM; with HLA-B*18:01 it was 1900 nM.

Consider SFSFGGFTFK, for which, in the test with HLA-A*33:01, the Kd was 85 nM.

For SVQPTFSVQR, the dissociation constant (Kd) with HLA-A*11:01 was 37 nM; in the test with HLA-A*68:01, 84 nM; with HLA-A*31:01, 21 nM; in the test with HLA-A*03:01, ≥ 10000 nM; with HLA-A*33:01, 181 nM.

As for SVQRNLPFER, the dissociation constant Kd was 411 nM with HLA-A*11:01; 19 nM in the test with HLA-A*68:01; 104 nM with HLA-A*31:01; ≥ 10000 nM in the test with HLA-A*03:01; 321 nM with HLA-A*33:01.

As for TEVETYVLSI, the Kd with HLA-B*40:01 came out at 133 nM; in the test with HLA-B*40:02, 195 nM; with HLA-B*44:03, 247 nM; with HLA-B*45:01, 504 nM; with HLA-B*44:02, 6880 nM; with HLA-B*18:01, 136 nM.

In the case of VLRGFLILGK, the Kd with HLA-A*11:01 is 460 nM; with HLA-A*68:01 it was 1160 nM; with HLA-A*31:01, 85 nM; with HLA-A*03:01, 10 nM; in the test with HLA-A*33:01 it was ≥ 10000 nM.

Take YSHGTGTGY: the Kd was found to be 199 nM in the test with HLA-A*01:01, 486 nM with HLA-A*29:02 and 131 nM with HLA-A*30:02.
